What was measured:
[1] = biological target: Fcε3-4 sub-fragment of IgE-Fc (human); assay: ITC
[2] = biological target: aεFab^1–IgE-Fc complex (one aεFab bound to IgE-Fc) (UniProt P01854); assay: SPR

Kd2 (second site, sequential two-site fit) [1]: 0.98 µM | Kd [2]: 1400 nM
B1: anti-ε-chain Fab (aεFab), anti-human IgE-Fc antibody in human IgG1 Fab format (Fab, V domains shown)
VH: QVQLQQSGPGLVKPSQTLSLTCGISGDSVSSNSAAWNWLRQSPSRGLEWLGRTYYRSKWYNDYAVSMKSRITINPDTSRNQFSLQLNSVTPEDTAVYYCARDGEISYDYYYYGMDVWGRGTLVTVSS
VL: QSVLTQPPSASGTPGQRVTISCSGSSSNIGNNGVNWYQQVPGKPPKLLIYYDDLLPSGVSDRFSGSKSGTSASLAISGLQSEDEADYYCEAWDDSLDGVVFGGGTKLTVL
